In PMC3355487 (mAbs, 2012):
Where two headings read alike, the source gives them in different places.

Experiments:
hROR1-ECD [1] = biological target: T1, hROR1-ECD (Homo sapiens, UniProt Q01973); assay: SPR
Fc-hROR1 [2] = biological target: T2, Fc-hROR1 (Homo sapiens, UniProt Q01973); assay: SPR
hROR1-ECD [3] = biological target: T1, hROR1-ECD; assay: SPR; remark: listed apart in the source
Fc-hROR1 [4] = biological target: T2, Fc-hROR1; assay: SPR; remark: listed apart in the source
Fc-mROR1 = Fc-mROR1 (Mus musculus, UniProt Q9Z139); assay: ELISA
Fc-mROR1, sequence (Q9Z139 30-406): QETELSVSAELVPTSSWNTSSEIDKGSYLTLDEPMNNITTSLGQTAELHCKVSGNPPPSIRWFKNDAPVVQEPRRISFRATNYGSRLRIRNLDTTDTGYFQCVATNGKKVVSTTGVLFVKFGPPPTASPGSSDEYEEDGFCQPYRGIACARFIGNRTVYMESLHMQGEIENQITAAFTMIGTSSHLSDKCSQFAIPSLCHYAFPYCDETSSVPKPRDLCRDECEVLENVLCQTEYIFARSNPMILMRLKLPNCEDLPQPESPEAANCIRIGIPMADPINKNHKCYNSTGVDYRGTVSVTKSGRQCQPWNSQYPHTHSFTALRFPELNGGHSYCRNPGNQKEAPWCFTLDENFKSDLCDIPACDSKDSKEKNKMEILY

Fc-hROR1Fz+Kr = Fc-hROR1Fz+Kr (Homo sapiens, UniProt Q01973); assay: ELISA
Fc-hROR1Fz = Fc-hROR1Fz (Homo sapiens, UniProt Q01973); assay: ELISA
Fc-hROR1Fz, sequence (Q01973 165-299): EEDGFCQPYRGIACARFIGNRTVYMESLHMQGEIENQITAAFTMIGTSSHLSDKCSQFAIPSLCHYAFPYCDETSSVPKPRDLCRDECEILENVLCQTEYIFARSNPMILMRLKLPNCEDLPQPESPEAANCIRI

Fc-hROR1Kr = Fc-hROR1Kr (Homo sapiens, UniProt Q01973); assay: ELISA

T2 sequence (Q01973 30-406): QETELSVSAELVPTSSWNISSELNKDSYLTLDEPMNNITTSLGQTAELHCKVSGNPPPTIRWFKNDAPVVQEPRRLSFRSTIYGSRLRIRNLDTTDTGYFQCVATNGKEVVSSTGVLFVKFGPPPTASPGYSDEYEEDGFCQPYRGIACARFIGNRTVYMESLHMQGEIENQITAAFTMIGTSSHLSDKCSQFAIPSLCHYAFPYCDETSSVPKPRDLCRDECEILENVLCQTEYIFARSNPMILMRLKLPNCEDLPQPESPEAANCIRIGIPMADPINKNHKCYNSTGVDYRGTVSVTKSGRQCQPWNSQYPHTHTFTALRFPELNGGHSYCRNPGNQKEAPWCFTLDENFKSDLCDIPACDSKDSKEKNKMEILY
T1 sequence (Q01973 30-406): as above

B1: mouse anti-human ROR1 monoclonal antibody 2A2-IgG (antibody, V domains shown)
VH: QVQLQQSGAELVRPGASVTLSCKASGYTFSDYEMHWVIQTPVHGLEWIGAIDPETGGTAYNQKFKGKAILTADKSSSTAYMELRSLTSEDSAVYYCTGYYDYDSFTYWGQGTLVTVSA
VL: DIVMTQSQKIMSTTVGDRVSITCKASQNVDAAVAWYQQKPGQSPKLLIYSASNRYTGVPDRFTGSGSGTDFTLTISNMQSEDLADYFCQQYDIYPYTFGGGTKLEIK
Kd (hROR1-ECD [1]): 32600 pM
koff (hROR1-ECD [1]): 0.00777 s⁻¹
kon (hROR1-ECD [1]): 240000 M⁻¹ s⁻¹
Kd (Fc-hROR1 [2]): 790 pM
koff (Fc-hROR1 [2]): 0.00018 s⁻¹
kon (Fc-hROR1 [2]): 230000 M⁻¹ s⁻¹
Kd (hROR1-ECD [3]): 120 pM
koff (hROR1-ECD [3]): 0.00018 s⁻¹
kon (hROR1-ECD [3]): 1.52e+06 M⁻¹ s⁻¹
Kd (Fc-hROR1 [4]): 420 pM
koff (Fc-hROR1 [4]): 0.00034 s⁻¹
kon (Fc-hROR1 [4]): 810000 M⁻¹ s⁻¹
binding result (Fc-mROR1): binds
binding result (Fc-hROR1Fz+Kr): no binding
binding result (Fc-hROR1Fz): no binding
binding result (Fc-hROR1Kr): no binding
